# Patent publication US20250215403A1, “Compositions and Methods for Cardiac Tissue Regeneration” (Temple University - Of The Commonwealth System Of Higher …, priority 2022, published 2025)
# Legend:
# [1] = Long-term survival of mice post-MI; format: in vivo, mouse; details: Luc vs PSAT1 modRNA
# Description: All animal procedures were performed under protocols approved by the Temple University Animal Care and Use Committee. Male and female C57BL6 mice were used. Different modRNAs (100 μg/heart) were injected directly into the myocardium in open chest surgery. Three to ten animals used for each experiment. For mice survival, C57BL6 mice (10-12-weeks-old) treated with Luc or PSAT1 modRNAs (n=10) post induction of MI and were followed for the indicated time. Deaths were monitored and documented over time. Tamoxifen-inducible CM-restricted MADM mice (α-MHC-MADM mice) mice were generated by crossing MADM mice (Jackson laboratory) to […].^Tg(Myh6-cre/Esr1*) 1Jmk/J (Cat no. 005657) mice to get α-MHC-MADM mice (Yuko, A. E., et al., 2021, Redox Biology, 47:102162). Tamoxifen (Sigma-Aldrich) was dissolved in sesame oil at 10 mg/ml as stock solution. To induce Cre activation, tamoxifen was administered to mice by intraperitoneal (IP) injection five times (48 h interval between administrations) at 40 mg/kg body weight for adult mice (Yuko, A. E., et al., 2021, Redox Biology, 47:102162). The tissues were harvested at mentioned time for analysis.
# [2] = tested on: cell cycle markers; experiment: qPCR of cell-cycle-promoting genes and cell-cycle inhibitors in heart post-MI; format: in vivo, mouse; details: 2 days post-MI; compared to Luc modRNA
# Description: Total RNA was isolated using TRIzol™ RNA isolation and RNeasy® (Qiagen) then reverse transcribed with High-Capacity cDNA Reverse Transcription Kit (Applied Biosystems), according to the manufacturer's instructions. Real-time qPCR analyses were performed on a StepOnePlus™ Real-Time PCR System using SYBR™ Green (Applied Biosystems). The primer sequences were synthesized by IDT (see Table 4 below). Data were normalized to 18s expression, where appropriate (endogenous controls). Fold-changes in gene expression were determined by the […] method and were presented relative to an internal control.
# [3] = tested on: GSK3β; experiment: Western blot of Ser9 phosphorylation of GSK3β in NRVM; format: cell-based, rat; details: compared to Luc modRNA
# Description: Total protein was isolated from the respective cells or tissues at given time points. In brief, equal amounts of protein were resolved by SDS-PAG Electrophoresis system in 4%-15% Mini-PROTEAN TGX stain-free gels (Bio-Rad) and blotted onto nitrocellulose membranes (Bio-Rad). The membranes were blocked in Intercept® (TBS) blocking buffer (LI-COR) diluted 1:1 with PBS for 1 hour at room temperature and washed with PBST (1% Tween® 20, pH 7.4) for 10 min. Primary antibodies diluted in blocking buffer were added and incubated overnight at 4° C. Anti-PSAT1 (1:1,000, Invitrogen, #PA5-22124), anti-Flotillin 1 (1:1,000, Cell Signaling, #3253), anti-pSer9GSK3B (1:1,000, Cell Signaling, #9336), anti-GSK3B (1:1,000, Cell Signaling, #9315), and anti-β-actin (1:1000, Santa Cruz, #sc-47778) antibodies were used. The next day, membranes were washed with PBST (3×10 min). Anti-rabbit and anti-mouse IRDye 800CW secondary antibodies (LI-COR) were applied for 1 hr at room temperature. The membranes were washed with PBST (3×10 min) and antigen or antibody complexes were visualized and quantified using Odyssey Fc Imaging System (LI-COR Biosciences, model number 2800).
# [4] = tested on: cardiomyocytes (CM); experiment: DNA damage response immunostaining (8-OHG, pATM) in CMs post-MI; format: in vivo, mouse; details: two days post-MI; compared to Luc
# Description: Mice hearts were harvested, weighed, and fixed in 4% PFA/PBS overnight on shaker and then washed with PBS for 1 hour and incubated in 30% sucrose/PBS at 4° C. for 12-18 hours. Hearts were then fixed in OCT and frozen at −80° C. (Magadum A., et al., Circulation. 2020, 141 (15): 1249-1265). Transverse heart sections (6-8 μm) were made using a cryostat. Frozen sections were rehydrated in PBS for 5-10 min followed by permeabilization with PBS with 0.1% Triton™ X100 (PBST) for 7-8 min. Heart sections were then treated with 3% H2O2 for 5 min and washed (3×5 min) with PBST. The samples were then blocked with PBS+10% Donkey normal serum+0.1% Triton™ X100 (PBSST) for 1 hour at room temperature. Primary antibodies (see complete list of primary antibodies used for this Example in Table 2 below) diluted in PBST were added and incubated overnight at 4° C. […] For immunostaining with wheat germ agglutinin (WGA) for CM size quantification, images were captured at 40× magnification, and ImageJ was used to determine the area of each cell. Quantitative analyses involved counting of multiple fields from 5-8 mouse hearts per group, and 3-4 sections/heart (˜50 cells per field assessed, for a total ˜250 cells per sample). […] BrdU positive CMs were counted in multiple fields from three independent samples per group and 3 sections/heart. The total number of CMs counted was ˜1-1.5×10^3 CMs per section. […]
molecule,measurement,setting,value
"PSAT1 modRNA: modified mRNA with N1-methylpseudouridine, transcribed in vitro, encoding phosphoserine aminotransferase 1 (ORF SEQ ID NO: 1, RNA SEQ ID NO: 2) (nucleic acid, N1-methylpseudouridine) AUGGAAGCCACCAAGCAAGUGGUUAACUUUGGGCCCGGGCCUGCCAAGCUGCCACACUCGGUAUUGUUGGAGAUCCAGAAGCAGCUACUAGACUACAGAGGACUCGGCAUCAGUGUGCUCGAAAUGAGUCACAGGUCAUCAGAUUUUGCCAAGAUUAUUGGCAAUACAGAGAAUCUUGUGAGGGAAUUGCUAGCUGUUCCCAACAACUACAAGGUGAUCUUUGUACAAGGAGGUGGGUCUGGCCAGUUCAGUGCUGUCCCCUUAAAUCUGAUUGGCCUGAAAGCUGGAAGGAGUGCUGACUACGUGGUGACCGGAGCUUGGUCAGCUAAGGCUGCGGAAGAAGCCAAGAAGUUUGGAACGGUGAACAUUGUCCACCCUAAACUUGGAAGUUACACAAAAAUUCCAGACCCAAGCACCUGGAACCUCAACCCGGACGCCUCCUAUGUAUACUUCUGUGCAAACGAGACUGUGCACGGGGUGGAGUUUGACUUCGUACCUGACGUCAAGGGAGCGGUGCUGGUCUGUGACAUGUCCUCAAACUUCUUAUCCAGGCCGGUGGAUGUUUCCAAGUUUGGUGUGAUUUUCGCUGGUGCUCAGAAGAAUGUUGGCUCUGCCGGGGUGACGGUGGUGAUUGUCCGGGAUGACCUGCUGGGGUUCUCGCUCAGAGAGUGCCCAUCAGUCCUUGACUACAAAGUGCAGGCUGGGAACAACUCUUUGUAUAACACACCUCCGUGCUUCAGCAUCUACGUCAUGGGCAUGGUCCUGGAAUGGAUCAAGAACAACGGCGGGGCCGCAGCCAUGGAGAAGCUCAGCUCCAUCAAAUCCCAAAUGAUUUAUGAGAUCAUUGAUAAUUCUCAAGGAUUUUAUGUAUGCCCAGUGGAGCGCCAGAAUAGAAGCAGGAUGAACAUCCCAUUUCGCAUUGGCAACGCCAAAGGAGACGAAGCUUUGGAAAAGCGGUUUCUUGACAAGGCGGUAGAACUCAACAUGAUCUCCUUGAAGGGGCACAGGUCAGUGGGAGGCAUUCGUGCCUCUCUGUAUAACGCUGUCACAACCGAAGACGUUGAGAAGCUGGCGGCCUUCAUGAAGAAUUUCUUGGAGAUGCAUCAGCUGUGA",mice survival,[1],significantly improved
same,expression of positive cell cycle markers,[2],induced
same,negative regulators of cell cycle markers,[2],inhibiting
same,phosphorylation of GSK3β at Ser9,[3],induces
same,staining for nuclear 8-OHG (nuclear foci per CMs),[4],significantly lower
same,staining for pATM (nuclear foci per CMs),[4],significantly lower
